The results in this text go back to paper PMC9352680, “A comprehensive thermodynamic model for RNA binding by the Saccharomyces cerevisiae Pumilio protein PUF4”.

To fix the notation:
T1: PUF4 RNA-binding domain (Saccharomyces cerevisiae, UniProt P25339 537-888)
T1 sequence: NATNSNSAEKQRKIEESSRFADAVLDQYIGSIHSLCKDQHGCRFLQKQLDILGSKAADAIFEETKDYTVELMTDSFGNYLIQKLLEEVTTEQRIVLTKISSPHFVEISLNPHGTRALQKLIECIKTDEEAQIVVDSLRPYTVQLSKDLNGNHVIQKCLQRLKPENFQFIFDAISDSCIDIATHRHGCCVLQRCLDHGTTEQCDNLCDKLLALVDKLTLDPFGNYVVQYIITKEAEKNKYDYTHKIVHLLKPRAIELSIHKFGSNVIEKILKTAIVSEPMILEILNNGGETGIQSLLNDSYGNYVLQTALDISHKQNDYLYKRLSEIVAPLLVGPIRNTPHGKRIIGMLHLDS

This data set addresses T1, PUF4 RNA-binding domain. Kind of data set: Mg; RNA-MaP; 20 mM Na-HEPES pH 7.4, 30 mM KOAc, 0.75 mM MgCl2, 0.1% Tween-20, 5% glycerol, 0.1 mg/mL BSA, 2 mM DTT; 25 C; 0.0125-409.6 nM protein. Particulars: tags: N-His6-TEV cleaved; C-SNAP kept, Cy3B-labelled; label: tethered on chip by stalled RNA polymerase.
UCUCUUCAACACUAUAGAUCUCUU (ssRNA) [Id_ii_S1_P3E.4_K3.3_C3.2_[T-1A]_H3.3_A3.1_F3.1_T3.2_[T9G]] gave a Kd of over 2.3 µM.
In the case of UCUCUUCCACACUAUACUUCUCUU (ssRNA) [Id_ii_S1_P3E.4_K3.3_C3.2_[T-1C]_H3.3_A3.1_F3.1_T3.2_[T9C]_[A10T]], the dissociation constant (Kd) is over 2.3 µM.
As to UCUCUUCUACACUAUAUCUCUCUU (ssRNA) [Id_ii_S1_P3E.4_K3.3_C3.2_H3.3_A3.1_F3.1_T3.2_[A10C]], the Kd came to 1.46 µM.
In the case of UCUCUUCUACACUAUACAUCUCUU (ssRNA) [Id_ii_S1_P3E.4_K3.3_C3.2_H3.3_A3.1_F3.1_T3.2_[T9C]], the Kd is 2.23 µM.
For UCUCUUCCACACUAUAAUUCUCUU (ssRNA) [Id_ii_S1_P3E.4_K3.3_C3.2_[T-1C]_H3.3_A3.1_F3.1_T3.2_[T9A]_[A10T]] the value was over 2.3 µM.
In the case of UCUCUUGCUGUAUAUUAUCUCUCUU (ssRNA) [Id_ii_S1_P4E.2_K4.1_C4.2_[C-2G]_[T-1C]_H4.1_A4.1_F4.1_T4.2_[G10T]_[T11C]] it was 0.00114 µM.
UCUCUUCUACACUAUAGUUCUCUU (ssRNA) [Id_ii_S1_P3E.4_K3.3_C3.2_H3.3_A3.1_F3.1_T3.2_[T9G]_[A10T]] had an equilibrium dissociation constant (Kd) of over 2.3 µM.
For the molecule UCUCUUGCUGUAUAUUAAUUCUCUU (ssRNA) [Id_ii_S1_P4E.2_K4.1_C4.2_[C-2G]_[T-1C]_H4.1_A4.1_F4.1_T4.2_[G10A]], the Kd is 0.00269 µM.
For UCUCUUCAACACUAUACCUCUCUU (ssRNA) [Id_ii_S1_P3E.4_K3.3_C3.2_[T-1A]_H3.3_A3.1_F3.1_T3.2_[T9C]_[A10C]] the value was over 2.3 µM; for UCUCUUUGUGUAUAUUAAAUCUCUU (ssRNA) [Id_ii_S1_P4E.2_K4.1_C4.2_[C-2T]_[T-1G]_H4.1_A4.1_F4.1_T4.2_[G10A]_[T11A]], 0.00147 µM; for UCUCUUGCUGUAUAUUAUUUCUCUU (ssRNA) [Id_ii_S1_P4E.2_K4.1_C4.2_[C-2G]_[T-1C]_H4.1_A4.1_F4.1_T4.2_[G10T]], 0.00128 µM.
With UCUCUUCUACACUAUAUAUCUCUU (ssRNA) [If_S1_P3E.4_K3.3_C3.2_H3.3_A3.1_F3.1_T3.2], the affinity, expressed as Kd, was 1 µM.
In the case of UCUCUUCCACACUAUAUUUCUCUU (ssRNA) [Id_ii_S1_P3E.4_K3.3_C3.2_[T-1C]_H3.3_A3.1_F3.1_T3.2_[A10T]] it was over 2.3 µM; in that of UCUCUUCGACACUAUAAUUCUCUU (ssRNA) [Id_ii_S1_P3E.4_K3.3_C3.2_[T-1G]_H3.3_A3.1_F3.1_T3.2_[T9A]_[A10T]], over 2.3 µM.
UCUCUUCGACACUAUACUUCUCUU (ssRNA) [Id_ii_S1_P3E.4_K3.3_C3.2_[T-1G]_H3.3_A3.1_F3.1_T3.2_[T9C]_[A10T]] registered a Kd of over 2.3 µM.
On to UCUCUUGCUGUAUAUUAUGUCUCUU (ssRNA) [Id_ii_S1_P4E.2_K4.1_C4.2_[C-2G]_[T-1C]_H4.1_A4.1_F4.1_T4.2_[G10T]_[T11G]], for which the Kd was found to be 0.00224 µM.
For UCUCUUGUUGUAUAUUAUUUCUCUU (ssRNA) [Id_ii_S1_P4E.2_K4.1_C4.2_[C-2G]_H4.1_A4.1_F4.1_T4.2_[G10T]], the affinity, expressed as Kd, was 0.000762 µM.
On to UCUCUUGUUGUAUAUUAUCUCUCUU (ssRNA) [Id_ii_S1_P4E.2_K4.1_C4.2_[C-2G]_H4.1_A4.1_F4.1_T4.2_[G10T]_[T11C]], for which binding was put at a Kd of 0.000891 µM.
In the case of UCUCUUUGUGUAUAUUAUGUCUCUU (ssRNA) [Id_ii_S1_P4E.2_K4.1_C4.2_[C-2T]_[T-1G]_H4.1_A4.1_F4.1_T4.2_[G10T]_[T11G]] it was 0.000968 µM; in that of UCUCUUGUUGUAUAUUAUGUCUCUU (ssRNA) [Id_ii_S1_P4E.2_K4.1_C4.2_[C-2G]_H4.1_A4.1_F4.1_T4.2_[G10T]_[T11G]], 0.00107 µM; in that of UCUCUUGUUGUAUAUUAAUUCUCUU (ssRNA) [Id_ii_S1_P4E.2_K4.1_C4.2_[C-2G]_H4.1_A4.1_F4.1_T4.2_[G10A]], 0.00125 µM.
UCUCUUCUACACUAUAAUUCUCUU (ssRNA) [Id_ii_S1_P3E.4_K3.3_C3.2_H3.3_A3.1_F3.1_T3.2_[T9A]_[A10T]] returned a dissociation constant (Kd) of 1.87 µM.
In the case of UCUCUUCCACACUAUACCUCUCUU (ssRNA) [Id_ii_S1_P3E.4_K3.3_C3.2_[T-1C]_H3.3_A3.1_F3.1_T3.2_[T9C]_[A10C]] it was over 2.3 µM; in that of UCUCUUCCACACUAUAAAUCUCUU (ssRNA) [Id_ii_S1_P3E.4_K3.3_C3.2_[T-1C]_H3.3_A3.1_F3.1_T3.2_[T9A]], over 2.3 µM.
UCUCUUGCUGUAUAUUAACUCUCUU (ssRNA) [Id_ii_S1_P4E.2_K4.1_C4.2_[C-2G]_[T-1C]_H4.1_A4.1_F4.1_T4.2_[G10A]_[T11C]]: the Kd came out at 0.00152 µM.
For the molecule UCUCUUUAUAUACUAUCUCUU (ssRNA) [Ib_S1_P4E.1_K4.1_C4.1_H4.1_[G2A]_A4.1_[T7C]_F4.1_T4.1], the affinity, expressed as Kd, was 0.0178 µM.
In the case of UCUCUUCCACACUAUACAUCUCUU (ssRNA) [Id_ii_S1_P3E.4_K3.3_C3.2_[T-1C]_H3.3_A3.1_F3.1_T3.2_[T9C]] it was over 2.3 µM; in that of UCUCUUUUUAUACUAUCUCUU (ssRNA) [Ib_S1_P4E.1_K4.1_C4.1_H4.1_[G2T]_A4.1_[T7C]_F4.1_T4.1], 1.06 µM.
For UCUCUUCGACACUAUAACUCUCUU (ssRNA) [Id_ii_S1_P3E.4_K3.3_C3.2_[T-1G]_H3.3_A3.1_F3.1_T3.2_[T9A]_[A10C]] the value was over 2.3 µM; for UCUCUUUUUAUAAUAUCUCUU (ssRNA) [Ib_S1_P4E.1_K4.1_C4.1_H4.1_[G2T]_A4.1_[T7A]_F4.1_T4.1], 1.45 µM.
For UCUCUUCAACACUAUAAAUCUCUU (ssRNA) [Id_ii_S1_P3E.4_K3.3_C3.2_[T-1A]_H3.3_A3.1_F3.1_T3.2_[T9A]] the value was over 2.3 µM.
In the case of UCUCUUUAUAUAGUAUCUCUU (ssRNA) [Ib_S1_P4E.1_K4.1_C4.1_H4.1_[G2A]_A4.1_[T7G]_F4.1_T4.1], the affinity, expressed as Kd, was 0.0505 µM.
With UCUCUUUGUGUAUAUUAUUUCUCUU (ssRNA) [Id_ii_S1_P4E.2_K4.1_C4.2_[C-2T]_[T-1G]_H4.1_A4.1_F4.1_T4.2_[G10T]], the Kd came out at 0.000848 µM.
In the case of UCUCUUCUACACUAUAGCUCUCUU (ssRNA) [Id_ii_S1_P3E.4_K3.3_C3.2_H3.3_A3.1_F3.1_T3.2_[T9G]_[A10C]] it was over 2.3 µM.
As to UCUCUUCUACACUAUAACUCUCUU (ssRNA) [Id_ii_S1_P3E.4_K3.3_C3.2_H3.3_A3.1_F3.1_T3.2_[T9A]_[A10C]], the Kd was over 2.3 µM.
In the case of UCUCUUGUUGUAUAUUAAAUCUCUU (ssRNA) [Id_ii_S1_P4E.2_K4.1_C4.2_[C-2G]_H4.1_A4.1_F4.1_T4.2_[G10A]_[T11A]] it was 0.00178 µM; in that of UCUCUUCGACACUAUAGCUCUCUU (ssRNA) [Id_ii_S1_P3E.4_K3.3_C3.2_[T-1G]_H3.3_A3.1_F3.1_T3.2_[T9G]_[A10C]], over 2.3 µM.
For UCUCUUCCACACUAUAGCUCUCUU (ssRNA) [Id_ii_S1_P3E.4_K3.3_C3.2_[T-1C]_H3.3_A3.1_F3.1_T3.2_[T9G]_[A10C]], the Kd was over 2.3 µM.
In the case of UCUCUUCUACACUAUAUGUCUCUU (ssRNA) [Id_ii_S1_P3E.4_K3.3_C3.2_H3.3_A3.1_F3.1_T3.2_[A10G]] it was 1.32 µM.
For UCUCUUUGUGUAUAUUAUCUCUCUU (ssRNA) [Id_ii_S1_P4E.2_K4.1_C4.2_[C-2T]_[T-1G]_H4.1_A4.1_F4.1_T4.2_[G10T]_[T11C]] the value was 0.00106 µM; for UCUCUUCAACACUAUAACUCUCUU (ssRNA) [Id_ii_S1_P3E.4_K3.3_C3.2_[T-1A]_H3.3_A3.1_F3.1_T3.2_[T9A]_[A10C]], over 2.3 µM; for UCUCUUCAACACUAUAUCUCUCUU (ssRNA) [Id_ii_S1_P3E.4_K3.3_C3.2_[T-1A]_H3.3_A3.1_F3.1_T3.2_[A10C]], over 2.3 µM.
Consider UCUCUUGCUGUAUAUUACCUCUCUU (ssRNA) [Id_ii_S1_P4E.2_K4.1_C4.2_[C-2G]_[T-1C]_H4.1_A4.1_F4.1_T4.2_[G10C]_[T11C]], for which the Kd turned out to be 0.000957 µM.
For UCUCUUGCUGUAUAUUAUAUCUCUU (ssRNA) [Id_ii_S1_P4E.2_K4.1_C4.2_[C-2G]_[T-1C]_H4.1_A4.1_F4.1_T4.2_[G10T]_[T11A]] the value was 0.00192 µM; for UCUCUUGUUGUAUAUUAGUUCUCUU (ssRNA) [Id_ii_S1_P4E.2_K4.1_C4.2_[C-2G]_H4.1_A4.1_F4.1_T4.2], 0.000355 µM.
